Data published in JP2007300927A (dated 2007).
Substitutions are numbered along the chain they refer to. Names may count otherwise.

Key:
[1] = molecular target: T1, 可溶型GPC3コアタンパク質 (human, UniProt P51654 25-563); test: ELISA on GPC3 (Fig. 15)
T1 construct: also called 可溶型GPC3コア蛋白質; soluble GPC3 core protein; not shown: C-terminal His tag
Target sequence in this assay (P51654 25-563 S495A/S509A): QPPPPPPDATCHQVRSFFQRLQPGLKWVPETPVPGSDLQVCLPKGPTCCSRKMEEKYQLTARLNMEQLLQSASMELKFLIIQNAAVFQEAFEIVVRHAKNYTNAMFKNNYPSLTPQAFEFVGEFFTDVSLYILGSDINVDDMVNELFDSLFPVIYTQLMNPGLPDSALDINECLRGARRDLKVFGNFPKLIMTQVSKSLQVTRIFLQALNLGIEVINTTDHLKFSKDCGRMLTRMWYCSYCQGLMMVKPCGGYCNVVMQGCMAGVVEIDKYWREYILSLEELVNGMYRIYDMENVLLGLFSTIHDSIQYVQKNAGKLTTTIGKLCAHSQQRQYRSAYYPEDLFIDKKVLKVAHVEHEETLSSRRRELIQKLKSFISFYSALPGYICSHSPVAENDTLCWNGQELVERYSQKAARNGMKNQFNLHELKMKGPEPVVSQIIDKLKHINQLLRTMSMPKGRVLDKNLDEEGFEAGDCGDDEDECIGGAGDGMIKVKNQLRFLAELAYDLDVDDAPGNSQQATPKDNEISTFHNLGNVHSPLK

[2] = molecular target: T2, GC-2 (human, UniProt P51654 510-563); test: Western blot of GST fusion proteins
T2 construct: also called GST融合タンパク質GC-2(Gly510からLys563); not shown: GST (glutathione S-transferase) of vector pGEX-4T-3 (Amersham), N-terminal to the GPC3 piece
T2 sequence: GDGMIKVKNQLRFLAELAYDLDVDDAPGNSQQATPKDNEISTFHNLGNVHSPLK

[3] = molecular target: T3, GC-3 (human, UniProt P51654 524-563); test: Western blot of GST fusion proteins
T3 construct: also called GST融合タンパク質GC-3(Ala524からLys563); not shown: GST (glutathione S-transferase) of vector pGEX-4T-3 (Amersham), N-terminal to the GPC3 piece
T3 chain: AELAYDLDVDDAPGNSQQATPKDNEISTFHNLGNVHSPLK

[4] = molecular target: T4, GC-1 (human, UniProt P51654 495-563); test: Western blot of GST fusion proteins
T4 construct: Made in E. coli DH5α, purified on glutathione resin; also called GST融合タンパク質GC-1(Ser495からLys563); not shown: GST (glutathione S-transferase) of vector pGEX-4T-3 (Amersham), N-terminal to the GPC3 piece
T4 sequence: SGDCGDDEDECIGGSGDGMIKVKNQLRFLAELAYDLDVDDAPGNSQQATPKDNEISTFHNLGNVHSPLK

[5] = molecular target: T1, 可溶型GPC3コアタンパク質; test: ELISA screening on immobilised soluble GPC3 core protein
[6] = molecular target: T1, 可溶型GPC3コアタンパク質; test: ELISA on immobilised soluble GPC3 core protein, COS7 supernatant
Target sequence in this assay (P51654 25-563 S495A/S509A): as the sequence (P51654 25-563 S495A/S509A) above

[7] = molecular target: T1, 可溶型GPC3コアタンパク質; test: ELISA, purified antibody from 10 μg/mL in 3-fold steps on immobilised soluble GPC3 core protein
Target sequence in this assay (P51654 25-563 S495A/S509A): as the sequence (P51654 25-563 S495A/S509A) above

[8] = molecular target: T1, 可溶型GPC3コアタンパク質; test: ELISA screening of hybridoma supernatant on immobilised soluble GPC3 core protein

B1: ヒト化GC33 H鎖ver.k / L鎖ver.a (antibody, human IgG1, V domains shown)
VH: QVQLVQSGAEVKKPGASVKVSCKASGYTFTDYEMHWVRQAPGQGLEWMGALDPKTGDTAYSQKFKGRVTLTADKSTSTAYMELSSLTSEDTAVYYCTRFYSYTYWGQGTLVTVSS
VL: DVVMTQSPLSLPVTPGEPASISCRSSQSLVHSNGNTYLHWYLQKPGQSPQLLIYKVSNRFSGVPDRFSGSGSGTDFTLKISRVEAEDVGVYYCSQNTHVPPTFGQGTKLEIK
notes: Human IgG1 / κ constant regions; also called GC33 VH ver.k
binding result [1]: binds

B2: GC33 ver.a / mouse (antibody, human IgG1, V domains shown)
VH: B1 VH with Q6E, L70I, K74E, T87R, T97A
VL: B1 VL with S7T, T14S, P15L, E17D, P18Q, Q50K, V88L, Y92F, Q105S
notes: Humanised H chain variable region ver.a combined with the mouse GC33 L chain variable region; human IgG1 / κ constant regions; also called H鎖 ver.a / L鎖 マウスGC33
binding result [1]: binds

B3: GC33 (antibody, V domains shown)
VH: QVQLQQSGAELVRPGASVKLSCKASGYTFTDYEMHWVKQTPVHGLKWIGALDPKTGDTAYSQKFKGKATLTADKSSSTAYMELRSLTSEDSAVYYCTRFYSYTYWGQGTLVTVSA
VL: B1 VL with S7T, T14S, P15L, E17D, P18Q, Q50K, V88L, Y92F, Q105S
notes: also called GC33抗体
binding result [2]: binds | binding result [3]: binds | binding result [4]: binds | binding result [5]: binds

B4: 改変抗体G34R (antibody, human IgG1, V domains shown)
VH: B1 VH
VL: B1 VL with G34R
notes: As G34A: H chain ver.k by 'the method above'; human IgG1/κ; COS7 supernatant
binding result [6]: binds

B5: 改変抗体G34Q (antibody, human IgG1, V domains shown)
VH: B1 VH
VL: B1 VL with G34Q
notes: as for B4
binding result [6]: binds

B6: 改変抗体G34E (antibody, human IgG1, V domains shown)
VH: B1 VH
VL: B1 VL with G34E
notes: as for B4
binding result [6]: binds

B7: 改変抗体G34L (antibody, human IgG1, V domains shown)
VH: B1 VH
VL: B1 VL with G34L
notes: as for B4
binding result [6]: binds

B8: ヒト化GC33 H鎖ver.f / L鎖ver.a (antibody, human IgG1, V domains shown)
VH: B1 VH with Q6E, T87R
VL: B1 VL
notes: Human IgG1 / κ constant regions; also called GC33 VH ver.f
binding result [1]: binds

B9: 改変抗体G34I (antibody, human IgG1, V domains shown)
VH: B1 VH
VL: B1 VL with G34I
notes: as for B4
binding result [6]: binds

B10: 改変抗体G34S (antibody, human IgG1, V domains shown)
VH: B1 VH
VL: B1 VL with G34S
notes: as for B4
binding result [6]: binds

B11: 改変抗体G34N (antibody, human IgG1, V domains shown)
VH: B1 VH
VL: B1 VL with G34N
notes: as for B4
binding result [6]: binds

B12: 改変抗体G34F (antibody, human IgG1, V domains shown)
VH: B1 VH
VL: B1 VL with G34F
notes: as for B4
binding result [6]: binds

B13: 改変抗体G34W (antibody, human IgG1, V domains shown)
VH: B1 VH
VL: B1 VL with G34W
notes: as for B4
binding result [6]: binds

B14: ヒト化GC33 H鎖ver.j / L鎖ver.a (antibody, human IgG1, V domains shown)
VH: B1 VH with T87R
VL: B1 VL
notes: Human IgG1 / κ constant regions; also called GC33 VH ver.j
binding result [1]: binds

B15: ヒト化GC33 H鎖ver.c / L鎖ver.a (antibody, human IgG1, V domains shown)
VH: B1 VH with Q6E, K74E, T87R
VL: B1 VL
notes: Human IgG1 / κ constant regions; also called GC33 VH ver.c
binding result [1]: binds

B16: ヒト化GC33 H鎖ver.i / L鎖ver.a (antibody, human IgG1, V domains shown)
VH: B1 VH with K74E, T87R
VL: B1 VL
notes: Human IgG1 / κ constant regions; also called GC33 VH ver.i
binding result [1]: binds

B17: ヒト化GC33(ver.a / ver.a) (antibody, V domains shown)
VH: B1 VH with Q6E, L70I, K74E, T87R, T97A
VL: B1 VL
notes: Human IgG1 / human κ constant regions (HEFgγ1, HEFgκ); also called GC33 VH ver.a / GC33 VL ver.a
binding result [1]: binds

B18: 改変抗体G34K (antibody, human IgG1, V domains shown)
VH: B1 VH
VL: B1 VL with G34K
notes: as for B4
binding result [6]: binds

B19: 改変抗体G34Y (antibody, human IgG1, V domains shown)
VH: B1 VH
VL: B1 VL with G34Y
notes: as for B4
binding result [6]: binds

B20: ヒト化GC33 H鎖ver.h / L鎖ver.a (antibody, human IgG1, V domains shown)
VH: B1 VH with Q6E
VL: B1 VL
notes: Human IgG1 / κ constant regions; also called GC33 VH ver.h
binding result [1]: binds

B21: 改変抗体G34D (antibody, human IgG1, V domains shown)
VH: B1 VH
VL: B1 VL with G34D
notes: as for B4
binding result [6]: binds

B22: 改変抗体G34A (antibody, human IgG1, V domains shown)
VH: B1 VH
VL: B1 VL with G34A
notes: Humanised GC33 L chain ver.a variant; human IgG1/κ; COS7 culture supernatant
binding result [6]: binds

B23: 改変抗体G34T (antibody, human IgG1, V domains shown)
VH: B1 VH
VL: B1 VL with G34T
notes: as for B4
binding result [6]: binds

B24: 改変抗体G34H (antibody, human IgG1, V domains shown)
VH: B1 VH
VL: B1 VL with G34H
notes: as for B4
binding result [6]: binds

B25: Asn33をAspに置換した改変抗体(N33D) (antibody, human IgG1, V domains shown)
VH: B1 VH
VL: B1 VL with N33D
notes: Humanised GC33 H chain ver.k (HEFgγ1, human IgG1) with L chain ver.a N33D (HEFgκ, human κ), expressed transiently in COS7; culture supernatant used
binding result [6]: no binding

B26: M13B3 (antibody, V domains shown)
VH: EVHLVESGGGLVKPGGSLKLSCAASGFTFSNYAMSWVRQTPEKRLEWVAAINNNGDDTYYLDTVKDRFTISRDNAKNTLYLQMSSLRSEDTALYYCVRQGGAYWGQGTLVTVSA
VL: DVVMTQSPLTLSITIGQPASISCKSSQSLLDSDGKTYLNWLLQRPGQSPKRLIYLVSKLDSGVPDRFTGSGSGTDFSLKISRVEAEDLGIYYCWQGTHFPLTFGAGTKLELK
notes: Mouse hybridoma antibody
binding result [7]: binds

B27: L9G11 (antibody, V domains shown)
VH: QVQLQQPGAELVKPGASVKLSCKASGYTFTSYWMHWVKQRPGQGLEWIGTIDPSDSETHYNLQFKDTATLTVDKSSSTAYMQLSSLTSEDSAVYYCIRGAFYSSYSYWAWFAYWGQGTLVTVSA
VL: DIVLTQSPTSLAVSLGQSVTISCRASESVEYYGTSLMQWYQQKPGQPPKLLIYGASNVESGVPARFSGSGSGTDFSLNIHPVEEDDIAMYFCQQSRKVPYTFGSGTKLEIK
notes: Mouse hybridoma antibody
binding result [7]: binds

B28: GC179 (antibody, V domains shown)
VH: EVQLVETGGGLVQPEGSLKLSCAASGFSFNINAMNWVRQAPGKGLEWVARIRSESNNYATYYGDSVKDRFTISRDDSQNMLYLQMNNLKTEDTAIYYCVREVTTSFAYWGQGTLVTVSA
VL: DIVMTQSAPSVPVTPGESVSISCKSSKSLLHSNGNTYLNWFLQRPGQSPQLLIYWMSNLASGVPDRFSGSGSGTAFTLRISRVEAEDVGVYYCMQHIEYPFTFGTGTKLEIK
notes: Mouse hybridoma antibody from GC-3 immunisation
binding result [2]: binds | binding result [3]: binds | binding result [4]: binds | binding result [5]: binds

B29: GC199 (antibody, V domains shown)
VH: QIQLEQSGPELKKPGETVKISCKASGYIFRDYSMHWVKQAPGKGLKWMGWINTETGEPTYADDFKGRFAFSLETSASTAYLQINNLKNEDTATYFCTSLYWGQGTLVTVSA
VL: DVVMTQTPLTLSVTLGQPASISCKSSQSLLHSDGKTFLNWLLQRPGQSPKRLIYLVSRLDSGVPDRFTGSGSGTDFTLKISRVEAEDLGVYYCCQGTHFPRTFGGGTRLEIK
notes: Mouse hybridoma antibody from GC-3 immunisation; also called GC199抗体
binding result [2]: binds | binding result [3]: binds | binding result [4]: binds | binding result [5]: binds

B30: M6B1 (antibody, V domains shown)
VH: EVQLVESGGDLVKPGGSLKLSCAASGFTFSSYAMSWVRQTPEKRLEWVAAINSNGGTTYYPDTMKDRFTISRDNAKNTLYLQMSSLRSEDSALYYCTRHNGGYENYGWFAYWGQGTLVTVSA
VL: DIQMTQSPSSLSASLGGKVTITCKASQDINKNIIWYQHKPGKGPRLLIWYTSTLQPGIPSRFSGSGSGRDYSFSISNLEPEDIATYYCLQYDNLPRTFGGGTKLEIK
notes: Mouse hybridoma antibody
binding result [7]: binds

B31: M5B9 (antibody, V domains shown)
VH: EVQLQQSGTVLARPGASVKMSCKASGYTFTGYWMHWVKQRPGQGLEWIGAIYPGNSDTNYNQKFKGKAKLTAVTSASTAYMELSSLTNEDAAVYHCTRSGDLTGGLAYWGQGTLVTVSA
VL: DIVMTQAAFSNPVTLGTSASISCRSSKSLLHSNGITYLYWFLQKPGQSPQLLIYQMSNLASGVPDRFSSSGSGTDFTLRISRVEAEDVGVYYCAQNLELPYTFGSGTKLEIK
notes: Mouse hybridoma antibody
binding result [8]: binds
